This data set in a line: soluble on expression in E. coli; label from the status in PepcDB or PDB records.
For “MSLLRIIDTETCGLQGGIVEIASVDVIDGKIVNPMSHLVRPDRPISPQAMAIHRITEAMVADKPWIEDVIPHYYGSEWYVAHNASFDRRVLPEMPGEWICTMKLARRLWPGIKYSNMALYKTRKLNVQTPPGLHHHRALYDCYITAALLIDIMNTSGWTAEQMADITGRPSLMTTFTFGKYRGKAVSDVAERDPGYLRWLFNNLDSMSPELRLTLKHYLENTEGHHHHHH”, the “soluble on expression in E. coli” value is “soluble”.

“MGSDKIHHHHHHMRRVSIYELDPGMIVARAIFNSEERVLLHAGVELNEKYIHGLQKAGVMSVYIRDELFDESDAVSDIISEKTRLKAIRTLKESFNLLEKKHQLNLHAVKNTVDEIIDEIIANPNTLVSLTDIRSFDDYTYAHSVNVGVLSIMSGVSLNYERSQLKELGVGALLHDIGKIKIDKNILNKPDDLSPEEFTEIKQHSKAGFDILRQHSGLSLLSAHIAFQHHERWDGQGYPRQLSGEEIHEYARIVAVADVYDALVADRPYRPAYSVTQAISILKRMTGLFLDPQCVKAFLNNIAVYPLGCLLELNTGELGAVIDINRKTPAQPVVRVLYDRNWRLLTPYELDLSKNSALVVKNVLSERQIKELKKNL”: the “soluble on expression in E. coli” value is given as “not soluble”. For “MSSCSSLQSSSSRGASTDSLNTTSNGFSDGGSNLLPPKPNRIGCAATGAQSETDLRFVTSRDTHSSIPLNEPFGFGEKSPRAFMSENDLSAGAAGASTDFPEVTRTPSYLRISCALNGYTKSPNKSDLTPIAPHPPVSTMGESFVERRSRMFSQPQQRNPAPGFSSPLPPTTVSSQSASSEIEWSVEKF” the value was “not soluble”; for “MPIEATMSTSNESANLLVPSFLPRGEVLGWNLTSVVNPVTRRKEYTYTVCVQTVGAFQCTEQAGVVLVKCDGPCGNKLPTNHLIALGKCDHMLCKACFGIVKNPDGSYGCSNFYCWSEPRGNFRKEKANYNKVINKQICRARKFKQDGEDLQACSKSNLPKTPADLSDREMNSAKSSESDTSSSDGSSYQSTVDSYGLPKRF”, “not soluble”. For “MAHHHHHHMSLMDCKYHKHHLYADKFWWSPSPETNHMRGDAEFKWKGNELIAYGDYNAHMQHPANFVTSSSSGSSGSGAATSKSAAAAAGSKKGASARPWFRRTVVVRKSQASDTKPLSTASKIAAAGTSK” the value was “not soluble”.

With “AGHMQQEAVAPEDSAVVKLATDSFNEYIQSHDLVLAEFFAPWCGHCKNMAPEYVKAAETLVEKNITLAQIDCTENQDLCMEHNIPGFPSLKIFKNSDVNNSIDYEGPRTAEAIVQFMIKQSQPAVAVVADLPAYLANETFVTPVIVQSGKIDADFNATFYSMANKHFNDYDFVSAENADDDFKLSIYLPSAMDEPVVYNGKKADIADADVFEKWLQVEALPYFGEIDGSVFAQYVESGLPLGYLFYNDEEELEEYKPLFTELAKKNRGLMNFVSIDARKFGRHAGNLNMKEQFPLFAIHDMTEDLKYGLPQLSEEAFDELSDKIVLESKAIESLVKDFLKGDASPIVKSQEIFENQDSSVFQLVGKNHDEIVNDPKKDVLVLYYAPWCGHCKRLAPTYQELADTYANATSDVLIAKLDHTENDVRGVVIEGYPTIVLYPGGKKSESVVYQGSRSLDSLFDFIKENGHFDVDGKALYEEAQEKAAEEADADAELADEEDAIHDEL”, the “soluble on expression in E. coli” value is given as “soluble”. The same measure for “GEVRNIVDKTASFVARNGPEFEARIRQNEINNPKFNFLNPNDPYHAYYRHKVSEFKEGKAQEPS”: “soluble”; for “MRTPLSSVSPQLVQRFHELGFTPSSIRNFLGRPGFAAISRGEPASVLYAMRENEDSDFYPLIATFILHRPVAAEALHRVLGGSLTDQLTETGVLEIVDASKAYLTAKIDIRWLELEDDLFWVFSDTDASMIADHVPGKDHVLGVGAASLSLLATTPRSPVNSVLDLGTGSGVQALGQLRHARSVTATDVHPRALDFAEATFAGAHFDVEILDGSWFEPIKNRKFDRIVANPPFVVGPPEIEHVYRDSGLDLDGATETVVRGAVDHLHSNGTAHLLGSWVHKNGESVASRVAEWIPSHGVIAWFLQRDTVDPIQYVNTWLRDESIDPRSEIGFKRTLSWLDHFSRAKVEAVGFGYVAIQRVDDSIPSEVYFEELTHQVDDYLGDEIEEFFVRVDWLREKNRDGIAQSQFYLRPGVAKESVSVTDIDSGMGFTHLKYRITRTEGPRWSHEVDEHIVSVIAGLHPEGLTLEDVATLYAVSNGLDDESFVDAIIDPVVALVRHGILLPAEITKGW”: “soluble”; for “ADVSAAVGATGQSGMTYRLGLSWDWDKSWWQTSTGRLTGYWDAGYTYWEGGDEGAGKHSLSFAPVFVYEFAGDSIKPFIEAGIGVAAFSGTRVGDQNLGSSLNFEDRIGAGLKFANGQSVGVRAIHYSNAGLKQPNDGIESYSLFYKIPI”: “soluble”. For “GSHMLTKQQIRYCLDEMAKMFPDAHCELVHRNPFELLIAVVLSAQCTDALVNKVTKRLFEKYRTPHDYIAVPLEELEQDIRSIGLYRNKARNIQKLCAMLIDKYNGEVPRDRDELMKLPGVGRKTANVVVSVAFGVPAIAVDTHVERVSKRLGFCRWDDSVLEVEKTLMKIIPKEEWSITHHRMIFFGRYHCKAQSPQCPSCPLLHLCREGKKRMRKREEKAANQK” the value was “soluble”; for “MKQLWFAMSLVAASLFFSANASADPASGALLQQMNIASQSLNYELSFVSITKQGVESLRYRHARLDGRPLAQLLQLDGPRREVVQRGNEISYFEPGLEPFTLNGDYIVDSLPSLIYTDFKRLAPYYDFISVGRTRIADRLCEVIRVVARDGTRYSYIVWMDMDTKLPMRVDLLDRDGETLEQFRVIAFTVSQDIGSNMQALAKANLPPLLSVPGGEKTKFNWSPSWVPQGFSEVSSSRRPLPTMDNLPIESRLYSDGLFSFSVNVNRATQNSSDQMLRTGRRTVYSSVRDNAEITIVGELPPQTAKRIADSIKFRAVQ”, “not soluble”; for “MGSDKIHHHHHHMGDLPGLVRLSIALRIQPNDGPVFYKVDGQRFGQNRTIKLLTGSSYKVEVKIKPSTLQVENISIGGVLVPLELKSKEPDGDRVVYTGTYDTEGVTPTKSGERQPIQITMPFTDIGTFETVWQVKFYNYHKRDHCQWGSPFSVIEYECKPNETRSLMWVNKESFL”, “not soluble”.

“MLSSSPASCTSPSPGTDNPDKKVHWASEKRRRASSTDSESKTHLDISKLPRSRRPSRLTVKYDRGHLQRWLEMEQWVDAQVQELFQGQEESSEPEIDLEALMDLSTEDQRTQLEAILQDCPGNREPFISELLSQLKRLRRLSRPSK”: the “soluble on expression in E. coli” value is on record as “soluble”. For “MQDLPPCPKCNDAYTYHDGTQLICPSCLYEWNENEVNDEELIVKDCHNNLLQNGDSVILIKDLKVKNSSLVLKKGTKIKNTKLVNSDHNVDCKIEGQSLSLKSEFLKKA” the value was “not soluble”; for “MSLFQVPDSEGGRAGSRAMKPPGGESSNLFGSPEEATPSSRPNRMASNIFGPTEEPQNIPKRTNPPGGKGSGIFDESTPVQTRQHLNPPGGKTSDIFGSPVTATSRLAHPNKPKDHVFLCEGEEPKSDLKAARSIPAGAEPGEKGSARKAGPAKEQEPMPTVDSHEPRLGPRPRSHNKVLNPPGGKSSISFYEGHHHHHH”, “soluble”. For the sequence “SNAMKQIIDIENWERKENFNFFRHFQNPQLSITSEVECGGARQRAKAAGQSFFLHYLYAVLRAANEIPEFRYRIDPDGRVVLYDTIDMLSPIKIKENGKFFTTRFPYHNDFDTFYQEARLIIDAIPEDGDPYAAENEEVADGDYGLILLSATPDLYFTSITGTQEKRSGNNYPLLNAGKAIIREGRLVMPIAMTIHHGFIDGHHLSLFYKKVEDFLK”, the “soluble on expression in E. coli” value is “soluble”. For “MGKFISGSIVAILTDQIEESTACNLKHLLRNDPLFKPLIQTNVHKKRSAYEIIGVHTCEENEPCRIGRTRSCLCQEDFVCDKTPANKNVHLCTKLGYFRLFEANKK” the value was “not soluble”. “MTKQQIEKLADLLPPFAATLYLDMIPEFQEGYASYVYQTPKQDIQKRRIKQLTKNFERLLDTPSFYVMPVTRKTAEQLLADKGLAYHLLSTVAANQVFAAAVNEDQMLFQVLRNGARVAFVILQEKGEFLEMTLGILETVTENEVPAAIVEAVQTYLLADMQEKLPSLSIMVSQESSKLFYQEQGFVLLAKGCKPGNENDSDVCQLVKYFSKP”: the “soluble on expression in E. coli” value is listed as “not soluble”.

In the case of “MPTPGTGSVPELQLVPFQLGHFPILQRWFATEKELVQWAGPALRHPLSLEQMHEDLAESRRRPPLRLLWSACRDDQVIGHCQLLFDRRNGVVRLARIVLAPSARGQGLGLPMLEALLAEAFADADIERVELNVYDWNAAARHLYRRAGFREEGLRRSATRVGRERWNVVLMGLLRQEWAAGGAGND”, the “soluble on expression in E. coli” value is on record as “soluble”.

As to “MKFGTVWKYYFTESLLKATIRTPSQLNLAPNALRPVLDQLCRLFPQNPTVQIRPIRLAGVRGEEIKAQASATQLIFHIHGGAFFLGSLNTHRALMTDLAARTQMQVIHVDYPLAPEHPYPEAIDAIFDVYQALLVQGIKPKDIIISGDSCGANLALALCLRLKQQPELMPSGLILMSPYLDLTLTSESLRFNQKHDALLSIEALQAGIKHYLTDDIQPGDPRVSPLFDDLDGLPPTLVQVGSKEILLDDSKRFREKAEQADVKVHFKLYTGMWHNFQMFNAWFPEAKQALADIAEFAHSLDLD”, the “soluble on expression in E. coli” value is recorded as “soluble”. For “MNRKAFLACVLMCVILTGCETAKKISEVIKNPDIQVGSLKEQPSEITVTLLTEPDTNTNAEGESAAVDVQLVYLTDDSKLQAADYDQIASTPLPDVLGKNYIDHQDFNLLPDTIKTLPPIKLDEKTQFIGVVAYFSDDQATEWKQIETVEGTGHHYRLLVHVRQSSIEMKKEDE” the value was “soluble”.

In the case of “MSLEELSLYTLRHVLERSAVLYADQPSLSQLGCEPLTFRDLHDHAEHLALWLRDNGVGTGDRVALLAENSPNWGIAYFAITGMGAIAVPILPEFHADAVQHILRHSEAKAVFVSERLFPKLEEGEGIADSLMCISMETFQSIAQGTTRDMLRELKSKGLREFRKLRDKAKRLANMADAAPAEDDVAAIIYTSGTTGHSKGVVLTHRNIVWDADAVKSIVKLGPGDRMLSILPLSHTYECTLGLVLPVLNGAHVHYMDKPPTARALLPAMAQVRPTAMLSVPLVIEKIFKTALLPKLTGSWLKQRLYAIPFVRRKLHALAGRKLLESFGGALRIFCIGGAGIAPDVERFLREANFPYAIGYGLTETAPLVAGSGPASTRLTSTGFTLDGVDIAIDAPDPATGEGEIIVRGPNVMREYYKAPQITASAFTPEGWFRTGDLGKFDADGYLYIKGRLKNVIIGPSGENIYPEEVEAIIHQSPFVLESLVFQQDGRLVARIHLDAARLDESFGDLPALKQREKIDALLETLRNEVNTKVSTFARLAKVIEQTEPFEKTPTHKIKRYLYVEQEGHHHHHH”, the “soluble on expression in E. coli” value is “soluble”. The same measure for “MGSDKIHHHHHHMKCSKCSAEAIYYAKYNGLYLCRDHFNEMIEGRVKKEIRKQVEFHGDDVTISVALSGGKDSSVTLFLLHKILGNRKNMKIKAFTVDEGIDGYRPSGLESAKRLCTSLGIDHETISFYDSYGLTLDSIVKTNPVKIPCAYCGPLRRKLINEMADKQDADYVALGLNLDDYSQSILMNVAKGDFDRFIRMSPQTDRKVGLVRRIAPLRTILEKEVVLYAVTNDIPFDSSWCPYYSRAQRNVFREVVNKLSEENPSTKFAILKFFDRVRENITTGHEEVKLKRCKICGAPTERDVCTACSSLQEVNEMMAEH”: “not soluble”; for “MQREQTKVFKRVAGIKDKAAIKTLISAAYRQIFERDIAPYIAQNEFSGWESKLGNGEITVKEFIEGLGYSNLYLKEFYTPYPNTKVIELGTKHFLGRAPIDQAEIRKYNQILATQGIRAFINALVNSQEYNEVFGEDTVPYRRFPTLPALEHHHHHH”: “soluble”.

For the origin of these results see the DeepSol protein solubility set.
